Measured values from US11110171B2, “PD-1 related cancer therapy” (New York University, priority 2017, dated 2021).

Target: T1, SHP2 binding to GST-PD1 (Homo sapiens, UniProt Q06124)
T1 construct: endogenous in cells; host or cells: SAP-knockdown Jurkat T cells (SHP2); GST-PD-1 tail made in BL21 E. coli
T1 sequence (Q06124 2-593 limits assumed): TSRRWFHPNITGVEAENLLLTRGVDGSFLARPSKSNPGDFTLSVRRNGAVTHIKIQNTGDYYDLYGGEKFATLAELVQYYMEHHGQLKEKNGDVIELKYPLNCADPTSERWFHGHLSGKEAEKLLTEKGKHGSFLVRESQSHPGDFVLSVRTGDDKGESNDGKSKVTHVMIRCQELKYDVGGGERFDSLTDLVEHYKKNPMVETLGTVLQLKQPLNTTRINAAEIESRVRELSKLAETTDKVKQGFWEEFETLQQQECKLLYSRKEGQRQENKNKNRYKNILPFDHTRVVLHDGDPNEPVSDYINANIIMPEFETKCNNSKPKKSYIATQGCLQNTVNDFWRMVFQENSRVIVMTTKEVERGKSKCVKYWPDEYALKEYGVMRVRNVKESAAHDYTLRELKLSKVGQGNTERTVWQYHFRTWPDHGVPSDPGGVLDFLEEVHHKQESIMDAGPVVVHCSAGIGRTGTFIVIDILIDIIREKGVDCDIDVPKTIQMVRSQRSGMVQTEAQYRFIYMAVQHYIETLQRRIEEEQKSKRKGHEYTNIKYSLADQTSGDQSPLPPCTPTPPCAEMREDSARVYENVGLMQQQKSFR
T1 sequence (Q15116 192-288 partner limits assumed): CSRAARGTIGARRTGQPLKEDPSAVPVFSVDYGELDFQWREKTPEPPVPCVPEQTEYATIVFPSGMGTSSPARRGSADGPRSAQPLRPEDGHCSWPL
Assay: Affinity purification of SHP2 by GST-PD1 with increasing concentrations of recombinant SAP
Conditions: increasing concentrations of recombinant SAP added to SAP KD Jurkat cell lysate
Procedure: FIG. 3. SAP is indirectly associated with PD-1. (ai) Pervanadate treated Jurkat T cells were transiently transfected with GFP-tagged PD-1 or GFP alone; Whole cell lysates (WCL) were immunoprecipitated with an anti-GFP antibody (IP: GFP), and samples were analyzed by immunoblotting. (aii) Densitometry values of data shown in ai. (b) Jurkat T cells were transfected with plasmids directing expression of the indicated fluorescent proteins and after 24 hours cells were stimulated with anti-CD3 antibodies and recombinant PDL2, followed by live-imaging. Bar, 10 μm. […] (di) Jurkat T cells were transfected with different versions of GFP-tagged PD-1, as indicated, followed by treatment with pervanadate; Whole-cell lysates (Input) were immunoprecipitated with an anti-GFP antibody (IP: GFP), and samples were analyzed by immunoblotting. […] (ei) 293T cells were transfected with plasmid directing expression of GFP-SAP or a control GFP plasmid, followed by treatment with pervanadate; Lysates were pulled-down with the GST-tagged PD-1 and samples were analyzed by immunoblotting. […] (gi) SHP2 KD and scrambled control Jurkat T cells were transfected with GFP-tagged PD-1, followed by treatment with pervanadate; Lysates were immunoprecipitated with an anti-GFP antibody (IP: GFP), and samples were analyzed by immunoblotting. […] Samples were analyzed by immunoblot. […]

interference with the affinity-purification of SHP2 by GST-PD1: did not interfere
B1: SAP: Recombinant human SAP (His tagged), signaling lymphocytic activation molecule-associated protein, purchased from Abcam (protein, UniProt O60880 1-128, looked up)
SH2 domain-containing protein …: MDAVAVYHGKISRETGEKLLLATGLDGSYLLRDSESVPGVYCLCVLYHGYIYTYRVSQTETGSWSAETAPGVHKRYFRKIKNLISAFQKPDQGIVIPLQYPVEKKSSARSTQGTTGIREDPDVCLKAP
modifications: His tag
